Experimental data: PMC7810697, “Sarcolipin alters SERCA1a interdomain communication by impairing binding of both calcium and ATP” (Scientific Reports, 2021)

Experiments:
[1] = biological target: T1, DDM-solubilized SR (native SERCA1a) (Oryctolagus cuniculus, UniProt P04191); assay: Vanadate inhibition of phosphoenzyme formation, DDM-solubilized SR; assay type: biochemical, rabbit; details: Suppl. Fig. 7
T1 construct: DDM-solubilized native SERCA1a purification; from tissue; host or cells: rabbit skeletal muscle sarcoplasmic reticulum
Procedure: (§1) Transient formation of the phosphoenzyme intermediate was measured after incubation with [γ^32P]ATP followed by acid quenching, and filtration. For most experiments, 50 µL of enzyme at 10 µg/mL in a buffer containing 50 mM Tes-Tris pH7.5, 1 mM KCl, 5 mM MgCl2, 20% glycerol (w/w) and 0.5 mg/mL DDM, supplemented or not with SLN, was stored on ice. Concentrations of EGTA and calcium are specified in figure legends in order to reach the appropriate [Ca^2+]free and therefore the desired starting state for the ATPase. For kinetics of phosphorylation, we initiate reaction by addition of 2 µM [γ^32P]ATP (5 mCi/µmole), and calcium at 100 µM when specified. Reaction was quenched by addition of 2 mL of cold quenching medium (500 mM TCA + 30 mM H3P0_4) under vigorous mixing, and immediately stored on ice for 20–30 min to improve precipitation, a period of time critical for retention of the precipitate on the filter in presence of detergent. This was followed by filtration on GS filters (Millipore, Saint Quentin-Fallavier, France) and careful rinsing of the filters with diluted quenching medium (50 mM TCA + 3 mM H3P0_4). The amount of radioactivity bound to the filter was estimated by liquid scintillation counting (Perkin Elmer TriCarb Counter). […]

[2] = biological target: T1, DDM-solubilized SR (native SERCA1a); assay: Kinetics of phosphorylation from [γ32P]ATP, DDM-solubilized SR; assay type: biochemical, rabbit; details: calcium-deprived state
Procedure: as §1

B1: SR: DDM-solubilized native rabbit sarco-endoplasmic reticulum SERCA1a, still containing native SLN (protein)
chain: MEAAHSKSTEECLAYFGVSETTGLTPDQVKRHLEKYGHNELPAEEGKSLWELVIEQFEDLLVRILLLAACISFVLAWFEEGEETITAFVEPFVILLILIANAIVGVWQERNAENAIEALKEYEPEMGKVYRADRKSVQRIKARDIVPGDIVEVAVGDKVPADIRILSIKSTTLRVDQSILTGESVSVIKHTEPVPDPRAVNQDKKNMLFSGTNIAAGKALGIVATTGVSTEIGKIRDQMAATEQDKTPLQQKLDEFGEQLSKVISLICVAVWLINIGHFNDPVHGGSWIRGAIYYFKIAVALAVAAIPEGLPAVITTCLALGTRRMAKKNAIVRSLPSVETLGCTSVICSDKTGTLTTNQMSVCKMFIIDKVDGDFCSLNEFSITGSTYAPEGEVLKNDKPIRSGQFDGLVELATICALCNDSSLDFNETKGVYEKVGEATETALTTLVEKMNVFNTEVRNLSKVERANACNSVIRQLMKKEFTLEFSRDRKSMSVYCSPAKSSRAAVGNKMFVKGAPEGVIDRCNYVRVGTTRVPMTGPVKEKILSVIKEWGTGRDTLRCLALATRDTPPKREEMVLDDSSRFMEYETDLTFVGVVGMLDPPRKEVMGSIQLCRDAGIRVIMITGDNKGTAIAICRRIGIFGENEEVADRAYTGREFDDLPLAEQREACRRACCFARVEPSHKSKIVEYLQSYDEITAMTGDGVNDAPALKKAEIGIAMGSGTAVAKTASEMVLADDNFSTIVAAVEEGRAIYNNMKQFIRYLISSNVGEVVCIFLTAALGLPEALIPVQLLWVNLVTDGLPATALGFNPPDLDIMDRPPRSPKEPLISGWLFFRYMAIGGYVGAATVGAAAWWFMYAEDGPGVTYHQLTHFMQCTEDHPHFEGLDCEIFEAPEPMTMALSVLVTIEMCNALNSLSENQSLMRMPPWVNIWLLGSICLSMSLHFLILYVDPLPMIFKLKALDLTQWLMVLKISLPVIGLDEILKFIARNYLEG
[1]
  EPmax (vanadate series), DDM-solubilized SR: 3.66+/-0.54 nmoles/mg of ATPase
[2]; Suppl. Fig. 5A
  maximum level of phosphorylated intermediate, DDM-solubilized SR: 6.39+/-0.20 nmoles EP/mg ATPase
[2]; no SLN added (native SLN present), three replicates from two independent experiments, p<0.0001 vs recS1a alone, p=0.002 vs recS1a+Palm-SLN or recS1a+SLN
  t1/2 of phosphorylation, DDM-solubilized SR: 10.4 s⁻¹
